Laboratory results as given in US20260242515A1 (DUALITY BIOLOGICS SHANGHAI, published 2026).
Residue numbers refer to the chain shown, from its start. One block for each binder: values may come before it.

Legend:
[1] = molecular target: T1, Human ADAM9 protein (ACROBiosystems, Cat. No. AD9-H52H7) (human, UniProt Q13443 29-697); experiment: SPR (Biacore 8K), antibody captured by anti-human Fc on CM5, ADAM9 as analyte
T1 construct: Bought protein; also called Human ADAM-His protein; human ADAM9 antigen; not shown: His tag
T1 sequence (looked up): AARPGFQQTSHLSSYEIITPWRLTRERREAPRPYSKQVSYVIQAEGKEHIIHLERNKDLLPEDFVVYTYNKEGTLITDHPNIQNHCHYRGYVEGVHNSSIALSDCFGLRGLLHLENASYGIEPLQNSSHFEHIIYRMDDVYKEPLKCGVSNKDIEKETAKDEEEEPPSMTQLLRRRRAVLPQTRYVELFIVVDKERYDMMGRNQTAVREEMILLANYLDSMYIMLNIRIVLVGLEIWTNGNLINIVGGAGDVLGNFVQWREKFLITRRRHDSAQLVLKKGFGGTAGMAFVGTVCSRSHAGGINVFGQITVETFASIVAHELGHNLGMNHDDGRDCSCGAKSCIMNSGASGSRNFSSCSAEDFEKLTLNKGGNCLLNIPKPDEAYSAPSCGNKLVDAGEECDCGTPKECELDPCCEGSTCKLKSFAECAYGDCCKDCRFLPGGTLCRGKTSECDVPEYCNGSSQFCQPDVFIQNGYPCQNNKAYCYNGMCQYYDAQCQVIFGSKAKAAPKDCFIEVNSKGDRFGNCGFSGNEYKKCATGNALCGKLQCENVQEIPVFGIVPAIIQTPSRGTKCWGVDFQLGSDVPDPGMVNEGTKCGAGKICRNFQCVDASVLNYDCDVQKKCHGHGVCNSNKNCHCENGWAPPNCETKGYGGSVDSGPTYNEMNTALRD
Description: Chip preparation: The mouse anti-human IgG (Fc) antibody (Cat. No. 29234600, Cytiva) was diluted to 25 μg/mL in immobilization buffer (10 mM sodium acetate, pH 5.0), specifically by adding 950 μL of the immobilization buffer to 50 μL of the mouse anti-human IgG (Fc) antibody. The dilution was used for immobilization in eight channels. First, the surface of the CM5 chip was activated with 400 mM EDC and 100 mM NHS at a flow rate of 10 μL/min for 420 seconds. Then, 25 μg/mL of the mouse anti-human IgG (Fc) antibody was injected into the test channels at a flow rate of 10 μL/min for approximately 360 seconds, with the level of immobilization at approximately 7000 to 14000 RU. Finally, the chip was blocked with 1 M ethanolamine at a flow rate of 10 μL/min for 420 seconds. The reference channels underwent the same procedures as the test channels.
Ligand capture: Antibodies Ab10, Ab15, Ab16, and hMAB-A (2I.2) were diluted to 4 μg/mL in running buffer (containing 10 mM N-(2-hydroxyethyl)piperazine-N-2-ethanesulfonic acid (HEPES), 150 mM sodium chloride (NaCl), 3 mM ethylenediaminetetraacetic acid (EDTA), 0.005% Tween-20, pH adjusted to 7.4) and injected into the test channels for human IgG (Fc) capture at a flow rate of 10 μL/min at approximately 200 RU. No ligand capture was performed in the reference channels.
Analyte multi-cycle analysis: Human and cynomolgus ADAM9 proteins (human ADAM9 protein purchased from ACRO, Cat. No. AD9-H52H7; monkey ADAM9 protein purchased from ACRO, Cat. No. AD9-C52H7) were diluted 2-fold in running buffer (Table 10). The diluted human or cynomolgus ADAM9 protein was sequentially injected into the test channels and the reference channels at a flow rate of 30 μL/min, with corresponding association and dissociation times. Both the association and dissociation steps were performed in the running buffer. After each concentration analysis, the chip was regenerated with 3 M magnesium chloride at a flow rate of 20 μL/min for 30 seconds to wash away the ligand and any undissociated analyte. For the next concentration analysis, the test channels required re-capture of the same amount of ligand.

[2] = molecular target: T1, Human ADAM9 protein (ACROBiosystems, …); experiment: indirect ELISA, human ADAM9-His coated at 1 ug/mL
Description: The plate was washed three times with PBST (PBS (pH 7.4) containing 0.05% Tween-20), followed by addition of 200 μL/well of blocking buffer containing 1% bovine serum albumin (BSA) diluted in PBST, and incubated at 37° C. for 1 hour for blocking. After blocking, the blocking buffer was discarded, and the plate was washed once with PBST buffer. The test antibody was diluted in PBST containing 1% BSA with a 3-fold serial dilution starting at 15 μg/mL across 11 doses, and added to the ELISA plate at 100 μL/well, followed by incubation at 37° C. for 1 hour. After incubation, the plate was washed three times with PBST, followed by addition of 100 μL/well of HRP-labeled goat anti-human secondary antibody (Rockland, Cat. No. 609-103-123) diluted in PBST containing 1% BSA, and incubated at room temperature for 45 minutes. The plate was washed six times with PBST, followed by addition of 100 μL/well of TMB chromogenic substrate (Suzhou Yacoo Chemical Reagent Co., Ltd., Cat. No. S0025), and incubated at room temperature in the dark for 10 minutes. The reaction was terminated by adding 50 μL/well of 1 M HCl, and the absorbance was measured at 450 nm using a microplate reader (Thermo, Ascent) for data analysis.

[3] = molecular target: T2, ADAM9 on human tumor cells (LS174T, HepG2, Calu-3, Colo205) (human, UniProt Q13443 29-819); experiment: cell-based or functional assay
T2 sequence (looked up): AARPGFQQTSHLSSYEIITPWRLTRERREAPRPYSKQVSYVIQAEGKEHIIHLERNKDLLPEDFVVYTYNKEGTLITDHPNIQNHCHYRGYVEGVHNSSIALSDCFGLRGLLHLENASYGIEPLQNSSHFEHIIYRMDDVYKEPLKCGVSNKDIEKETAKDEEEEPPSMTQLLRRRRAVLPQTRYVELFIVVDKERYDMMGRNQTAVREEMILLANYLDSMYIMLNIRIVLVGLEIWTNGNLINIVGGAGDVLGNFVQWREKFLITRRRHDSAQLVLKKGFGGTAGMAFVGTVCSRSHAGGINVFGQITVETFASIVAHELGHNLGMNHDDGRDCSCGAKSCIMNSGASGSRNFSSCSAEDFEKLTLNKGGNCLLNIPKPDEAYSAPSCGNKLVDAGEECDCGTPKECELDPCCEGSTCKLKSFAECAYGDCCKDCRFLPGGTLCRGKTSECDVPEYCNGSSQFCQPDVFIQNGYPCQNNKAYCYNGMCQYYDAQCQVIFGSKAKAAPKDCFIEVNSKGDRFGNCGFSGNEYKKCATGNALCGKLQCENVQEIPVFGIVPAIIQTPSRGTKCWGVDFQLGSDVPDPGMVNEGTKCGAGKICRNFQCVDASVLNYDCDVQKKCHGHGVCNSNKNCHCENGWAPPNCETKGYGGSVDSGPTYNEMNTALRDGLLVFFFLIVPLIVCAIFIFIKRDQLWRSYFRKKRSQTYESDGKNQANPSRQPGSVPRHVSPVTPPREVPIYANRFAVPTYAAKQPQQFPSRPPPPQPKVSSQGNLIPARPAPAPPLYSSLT

[4] = molecular target: T2, ADAM9 on human tumor cells (LS174T, …); experiment: cell-based or functional assay; remark: listed apart in the source

Kd [1]: 17.5 nM | koff [1]: 0.00255 s⁻¹ | kon [1]: 146000 M⁻¹ s⁻¹ | EC50 [2]: 0.059 nM | Top (OD450) [2]: 3.4 OD450 | EC50 for internalization [3]: 0.16 nM | Maximum internalization rate (%) [3]: 81.3%
B1: Ab10 (antibody, human IgG1, kappa, V domains shown)
VH: QVQLQESGAELKRPGSSVKVSCKASGFTFPLYWMNWVRQRPGRGLEWMGRIIPIFGHTKYNEKFKDRATLTADESSSTAYMELSSLRSDDSAVYYCARGGYYYYPREGFLDYWGQGTSVTVSS
VL: DIVMTQSPASLSVSPGERASISCRSSQSVDYSGDSYMNWYQQKPGQSPRLLIYAASDRESGVPARFSGSKSGTDFTLKINRVEEEDAGTYYCQQSREDPFTFGQGTRVEIKR
notes: also called Ab10-V (variable regions)

IC50 (nM), proliferation inhibition of Calu-3 cells (CTG, 6 days) [4]: 8.6 nM
B2: Ab16-X1 (antibody, human IgG1, kappa, V domains shown)
VH: QVQLQQPGTEVVKPGASVKLSCKASGFTFPLYWMHWVRQRPGRGLEWIGRIIPIFGHTKYNEKFKNKATLTADESSSTAYMELRSLTSDDSAVYYCARGGYYYYPREGFLDYWGQGTSVTVSS
VL: B1 VL with A64D, K70G, N80S, R107K, E109D
modifications: linker-payload X1 (camptothecin type) conjugated after TCEP reduction; DAR p=7.8 per antibody; sites not stated

IC50 (nM), proliferation inhibition of Colo205 cells (CTG, 6 days) [4]: 28.5 nM | IC50 (nM), proliferation inhibition of LS174T cells (CTG, 6 days) [4]: 11.6 nM
B3: Ab15-X2 (antibody, human IgG1, kappa, V domains shown)
VH: B1 VH with E6Q, S7P, R13K, S16A, M48I, L70M, R87T, D89E
VL: B1 VL with A9D, S20T, S22N, A64D, K70G, N80S, R81N, G88A
modifications: linker-payload X2 (camptothecin type) conjugated after TCEP reduction; DAR p=7.8 per antibody; sites not stated

IC50 (nM), proliferation inhibition of Calu-3 cells (CTG, 6 days) [4]: 3.83 nM | IC50 (nM), proliferation inhibition of Colo205 cells (CTG, 6 days) [4]: 29.8 nM | IC50 (nM), proliferation inhibition of LS174T cells (CTG, 6 days) [4]: 8.97 nM
B4: Ab16-X2 (antibody, human IgG1, kappa, V domains shown)
VH: B2 VH
VL: B1 VL with A64D, K70G, N80S, R107K, E109D
modifications: linker-payload X2 (camptothecin type) conjugated after TCEP reduction; DAR p=7.9 per antibody; sites not stated

EC50 [2]: 0.055 nM | Top (OD450) [2]: 3.06 OD450
B5: Ab4 (antibody, human IgG1, kappa, V domains shown)
VH: B1 VH with L11V, L70M, A72R, E74K, R87T
VL: DIVMTQSPSSLSVSPGERATINCRSSQSVDYSGDSYMNWYQQKPGQAPRLLIYAASDLESGVPDRFSGSGSGTDFTLNINGVEEEDAATYYCQQSREDPFTFGQGTKVEIKR
notes: also called Ab04; Ab4-V (variable regions)

EC50 [2]: 0.052 nM | Top (OD450) [2]: 3.12 OD450
B6: Ab1 (antibody, human IgG1, kappa, V domains shown)
VH: B1 VH with L11V, R43Q, K59D, L70I, A72R, S77N, S85R, D89E
VL: B1 VL with A64D, K70G, N80S, R107K, E109D
notes: also called Ab01; Ab1-V (variable regions)

EC50 [2]: 0.06 nM | Top (OD450) [2]: 3.31 OD450
B7: Ab7 (antibody, human IgG1, kappa, V domains shown)
VH: B1 VH with L11V, R43Q, K59D, L70I, A72R, S77N, S85R, D89E
VL: B1 VL with S22N, S26D, Q46K, A64D, K70G, K78N, R81S, E109D
notes: also called Ab07; Ab7-V (variable regions)
